Experimental findings from the supplement of paper PMC10567573 are described below.

The data set can be described thus: protein stability index of a GFP-peptide fusion (GPS, HEK-293T) (PSI 1-6); higher = more stable. The settings on record: c terminus: a fixed tail appended.

± gives the standard deviation.
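Also: 24-mer peptide tiles fused after GFP, lentivirally expressed, FACS-sorted into six equal bins by GFP/DsRed ratio, decoded by Illumina sequencing, PSI is the read-weighted mean bin number.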

Regarding GGKSGELEQEEERLSKEWEDSKRW [CHGA], the protein stability index (treatment: DMSO) amounted to 5.3 ± 0.33 and the protein stability index (treatment: MLN4924 1 uM, 8 h) stood at 5.07 ± 0.32.
As to ADLSSGSSGEDDDFKSCPQGPQGR [PWWP2B], the protein stability index came to 5.36 ± 0.15 (treatment: DMSO) and 5.52 ± 0.13 (treatment: MLN4924 1 uM, 8 h).
Regarding QPWVEVVLALRNMKNLLFSEMWDI [MFSD9], the protein stability index came out at 2.78 ± 0.66 (treatment: DMSO) and 2.44 ± 0.44 (treatment: MLN4924 1 uM, 8 h).
On to TARRSKRERREEDRAPAEQVPRSP [PWWP2B], for which the protein stability index runs as follows: (treatment: DMSO) 5.38 ± 0.26; (treatment: MLN4924 1 uM, 8 h) 5.16 ± 0.45.
Regarding FRNCGACVTLMQGHEGSVSSCHFA [WDR88], the protein stability index is, setting by setting: (treatment: DMSO) 2.85 ± 0.62; (treatment: MLN4924 1 uM, 8 h) 2.59 ± 0.37.
NPQRQGLLKTPWRAASAMQFFTKG [GCH1]: the protein stability index is, setting by setting: (treatment: DMSO) 2.89 ± 0.29; (treatment: MLN4924 1 uM, 8 h) 2.76 ± 0.21.
For LIVGAPIWFRVPYSIISLLLKDKV [PTPN9], in that order: 2.59 ± 0.37 and 2.75 ± 0.85.
The sequence PRTSQSEETRVWHRRDGKWQNVHF [CAMK2B] showed a protein stability index (treatment: DMSO) of 3.29 ± 0.3 and a protein stability index (treatment: MLN4924 1 uM, 8 h) of 3.39 ± 0.22.
For KVVKGHRPELPPVCRARPRACSHL [RIPK4], in that order: 3.19 ± 0.36 and 3.04 ± 0.46.
PAADGARAPRSPGQVTPRGLRLRL [C6orf223]: the protein stability index runs as follows: (treatment: DMSO) 3.96 ± 0.12; (treatment: MLN4924 1 uM, 8 h) 3.97 ± 0.19.
In the case of AHHPLHPHLMQEHMGTNVIVANTM [HNF4A], the protein stability index (treatment: DMSO) was 3.2 ± 0.23 and the protein stability index (treatment: MLN4924 1 uM, 8 h) turned out to be 3.21 ± 0.17.
Turning to LQPEQQLNIYKTLKTHLIEKGILQ [CDS1], the protein stability index runs as follows: (treatment: DMSO) 2.42 ± 0.14; (treatment: MLN4924 1 uM, 8 h) 2.58 ± 0.4.
Take EPHPRPLLQRELMVPGTRHSAVLR [TNXB]: the protein stability index (treatment: DMSO) worked out at 3.93 ± 0.42 and the protein stability index (treatment: MLN4924 1 uM, 8 h) turned out to be 4.2 ± 0.59.
VHSSPVSSPSVSGPRRLVSCLSSQ [SPACA3]: the protein stability index was 3.38 ± 0.2 (treatment: DMSO) and 3.54 ± 0.18 (treatment: MLN4924 1 uM, 8 h).
On to TGSPARLSLRQTGSPGMIYSTRYG [KCNAB2], for which the protein stability index reads like this: (treatment: DMSO) 3.15 ± 0.45; (treatment: MLN4924 1 uM, 8 h) 3.12 ± 0.45.
LNAEAGHLDPGFLASDKTSAGNAP [C18orf25]: the protein stability index was 5.07 ± 0.14 (treatment: DMSO) and 4.98 ± 0.14 (treatment: MLN4924 1 uM, 8 h).
Regarding GEKPFKCHLCNYACRRRDALTGHL [IKZF1], the protein stability index runs as follows: (treatment: DMSO) 2.2 ± 0.12; (treatment: MLN4924 1 uM, 8 h) 2.51 ± 0.53.
In turn, VSLAVTLHRLKFLGFARRNWGNGK [GDAP1] yielded a protein stability index (treatment: DMSO) of 2.38 ± 0.41 and a protein stability index (treatment: MLN4924 1 uM, 8 h) of 2.33 ± 0.64.
In the case of ADSQITTIGNLVPQKTYSVKVLAF [PTPRD], the protein stability index by setting is: (treatment: DMSO) 2.46 ± 0.56; (treatment: MLN4924 1 uM, 8 h) 2.17 ± 0.28.
For the sequence AFPGASHESSGNPPLRVIVKDALF [RHOBTB3], the protein stability index runs as follows: (treatment: DMSO) 2.96 ± 0.28; (treatment: MLN4924 1 uM, 8 h) 3.25 ± 0.41.
Turning to ILDQTTSEDAVGGATLGQTTSEEA [HDAC6], the protein stability index is, setting by setting: (treatment: DMSO) 5.42 ± 0.065; (treatment: MLN4924 1 uM, 8 h) 5.5 ± 0.15.
For the sequence KEISRKRRSIRYGREVELKPYIAA [PTPRD], the protein stability index was determined as 3.27 ± 0.17 (treatment: DMSO) and 3.65 ± 0.44 (treatment: MLN4924 1 uM, 8 h).
TPPSSRRVWSPPRVHKVEMGFGGG [ZBTB22]: the protein stability index (treatment: DMSO) came to 3.22 ± 0.4 and the protein stability index (treatment: MLN4924 1 uM, 8 h) was found to be 3.33 ± 0.081.
Take DELDMSPGDPKWLDVIERDLHRQF [TBC1D10A]: the protein stability index (treatment: DMSO) was 3.84 ± 0.21 and the protein stability index (treatment: MLN4924 1 uM, 8 h) is 3.8 ± 0.12.
On to TVIHDFLFSLKESPEKFQIEANFP [FAF2], for which the protein stability index worked out at 2.14 ± 0.37 (treatment: DMSO) and 2.03 ± 0.19 (treatment: MLN4924 1 uM, 8 h).
For TWESKNILAVSFAPLVQPSKNDNG [PCMTD1], in that order: 3.3 ± 0.41 and 3.6 ± 0.51.
For SSLPGHAAKTLPGGAGKGRTPSAF [EHMT1], in that order: 3.98 ± 0.34 and 4.26 ± 0.32.
As for SEEKGHPQEESEESNVSMASLGEK [CHGB], the protein stability index runs as follows: (treatment: DMSO) 5.48 ± 0.21; (treatment: MLN4924 1 uM, 8 h) 5.61 ± 0.19.
In the case of RPPGPAGTEQSRGLGHGSTSRGGP [CPOX], the protein stability index was found to be 4.794 ± 0.018 (treatment: DMSO) and 4.92 ± 0.33 (treatment: MLN4924 1 uM, 8 h).
For DHELGRCTDSVVKYELMRPSNKAP [EHMT1], in that order: 4.19 ± 0.091 and 4.23 ± 0.31.
For EQRTIQAQKESLQNQHHSASLQAS [APBB1IP], in that order: 5.16 ± 0.19 and 4.99 ± 0.18.
On to PAEEAGPEGGLEEPDALDDSLTSL [FOXJ1], for which the protein stability index is 5.6 ± 0.23 (treatment: DMSO) and 5.56 ± 0.34 (treatment: MLN4924 1 uM, 8 h).
For TKPSKSAALHIDLCKATSPADALQ [INTS4], the protein stability index (treatment: DMSO) amounted to 3.91 ± 0.1 and the protein stability index (treatment: MLN4924 1 uM, 8 h) came to 3.84 ± 0.29.
For TLYTAKKYAVPALEAHCVEFLTKH [BTBD1], in that order: 2.7 ± 0.28 and 2.48 ± 0.12.
For ERDREREPEAASSRGSPVRVKREF [USP39], the protein stability index runs as follows: (treatment: DMSO) 5.4 ± 0.26; (treatment: MLN4924 1 uM, 8 h) 5.39 ± 0.17.
For the sequence MAYDQFLAICRPLTYSTRMSQTVQ [OR3A1], the protein stability index turned out to be 2.25 ± 0.33 (treatment: DMSO) and 2.21 ± 0.29 (treatment: MLN4924 1 uM, 8 h).
For LGPGALHFDLRDDDDAEEEGPKRE [TCF25], in that order: 5.17 ± 0.29 and 5.54 ± 0.13.
SYNITVTATDGGSPPLSTEAHFML [PCDHGA10]: the protein stability index was 2.03 ± 0.36 (treatment: DMSO) and 2.09 ± 0.4 (treatment: MLN4924 1 uM, 8 h).
As for LIQDSPDSSTSPKGKQPTSAENSV [NANOGP8], the protein stability index is, setting by setting: (treatment: DMSO) 5.23 ± 0.11; (treatment: MLN4924 1 uM, 8 h) 5.17 ± 0.17.
With ENVKDVPFGFQTVTSDVNKLSSFY [SERPINB5], the protein stability index is 2.74 ± 0.15 (treatment: DMSO) and 3.09 ± 0.46 (treatment: MLN4924 1 uM, 8 h).
As to QNFLDPGYPLPKLDMNFSLENREE [ZNF449], the protein stability index runs as follows: (treatment: DMSO) 5.02 ± 0.24; (treatment: MLN4924 1 uM, 8 h) 4.74 ± 0.29.
With VWERPARSALWCLGLNAAFWFFAL [RETREG3], the protein stability index worked out at 2.62 ± 0.77 (treatment: DMSO) and 2.61 ± 0.2 (treatment: MLN4924 1 uM, 8 h).
In the case of TSGVVFTGLMVSLLCLLHFSIVSV [RTN2], the protein stability index reads like this: (treatment: DMSO) 3 ± 0.53; (treatment: MLN4924 1 uM, 8 h) 3.07 ± 0.24.
For GYGGGFSSSSSFGSGFGGGYGGGL [KRT16], in that order: 2.47 ± 0.33 and 2.57 ± 0.14.
With EMDMVVFRPEMKKHSWCLKRKNPP [N4BP2L1], the protein stability index is 3.25 ± 0.31 (treatment: DMSO) and 3.25 ± 0.18 (treatment: MLN4924 1 uM, 8 h).
Turning to VRDGPFGFSPIIGRFCGQQNPPVI [NETO1], the protein stability index worked out at 2.27 ± 0.21 (treatment: DMSO) and 2.25 ± 0.19 (treatment: MLN4924 1 uM, 8 h).
Regarding SKSADNQEYFERHRWPPVWYLKEE [RHOBTB1], the protein stability index by setting is: (treatment: DMSO) 3.4 ± 0.29; (treatment: MLN4924 1 uM, 8 h) 3.43 ± 0.34.
For the sequence KMELLILETQAQVCQALAQVDGGA [CPOX], the protein stability index runs as follows: (treatment: DMSO) 2.14 ± 0.52; (treatment: MLN4924 1 uM, 8 h) 2.18 ± 0.52.
For AISPGRFPEALDELPLPPFLQPLD [ANKRD9], the protein stability index is 3.91 ± 0.32 (treatment: DMSO) and 3.96 ± 0.18 (treatment: MLN4924 1 uM, 8 h).
In turn, ERPRMNANSLLASPTGLSPYLRFG [CRY1] returned a protein stability index (treatment: DMSO) of 2.89 ± 0.21 and a protein stability index (treatment: MLN4924 1 uM, 8 h) of 2.98 ± 0.22.
QYEVSNFARNGALSTHNWTYWQCG [RSAD1]: the protein stability index is 2.43 ± 0.25 (treatment: DMSO) and 2.05 ± 0.23 (treatment: MLN4924 1 uM, 8 h).
For LKHWRRAMELRHQGGEYLPKPEPP [FEM1A], the protein stability index turned out to be 3.08 ± 0.53 (treatment: DMSO) and 3.16 ± 0.41 (treatment: MLN4924 1 uM, 8 h).
